Measured values reported in patent US10738294B2, “Tissue factor (TF)—targeted nanotherapy” (Northwestern University, priority 2016, dated 2020).
No end group written: not given here. *: point of attachment. Dodecyl = CCCCCCCCCCCC*

How the values were obtained:
injured liver = experiment: Fluorescent microscopy of nanofiber binding in liver and other organs after liver punch injury; assay type: in vivo; conditions: rat liver punch model, tail vein injection, fluorescently labeled nanofiber
Method: (§1) At the end of 30 minutes, animals were euthanized.
In situ perfusion with 400 mL of a PBS solution was performed, and organs including the kidneys, spleen, lung, uninjured liver, and injured lobe of the liver were collected for tissue processing. Samples were fixed in 2% paraformaldehyde for 2 hours, then 30% sucrose overnight. Samples were then frozen in Tissue-Tek OTC compound (Sakura Finetek, Torrance, Calif.) over liquid nitrogen and stored at −20° C. A LEICA CM 1950 cryostat (LEICA Biosystems, Buffalo Grove, Ill.) was used to cut samples into 10-μm sections, which were stained with 4′,6-diamidino-2-phenylindole (DAPI, Invitrogen, Grand Island, N.Y.), and fixed with ProLong® Gold antifade reagent (Life Technologies, Eugene, Oreg.). […]
Digital images were acquired using a Zeiss LSM-510 microscope (Hallbergmoos, Germany) with a 20× objective. The HE CY3 filter (Zeiss filter #43) using excitation and emission wavelength 550-575 nm and 605-670 nm, respectively, was used to assess PA fluorescence. […] The green fluorescent protein filter (Zeiss filter #38) using excitation and emission wavelengths of 470-495 nm and 525-550 nm, respectively, was used to assess tissue auto-fluorescence.

Sprague Dawley rats = experiment: Liver punch hemorrhage model, blood loss; assay type: in vivo; conditions: % total blood volume, rat liver punch model, 30 minutes, 2.5 mg PA by tail vein
Method: as §1
Blood loss was presented as % total blood volume. […] Data were log transformed for analysis.

Rat recombinant TF = biological target: T1, Rat recombinant TF (Rattus norvegicus, UniProt P42533); experiment: Plate-based in vitro binding assay of TF-targeting peptides to recombinant TF; conditions: for absorbance (binding to recombinant TF): 450 nm, coated peptides incubated with 75 ng recombinant TF; for dose response of absorbance with recombinant TF: peptide-coated plates, increasing concentrations of recombinant TF
T1 construct: purchased Cloud Clone Corp
T1 sequence (P42533 29-295): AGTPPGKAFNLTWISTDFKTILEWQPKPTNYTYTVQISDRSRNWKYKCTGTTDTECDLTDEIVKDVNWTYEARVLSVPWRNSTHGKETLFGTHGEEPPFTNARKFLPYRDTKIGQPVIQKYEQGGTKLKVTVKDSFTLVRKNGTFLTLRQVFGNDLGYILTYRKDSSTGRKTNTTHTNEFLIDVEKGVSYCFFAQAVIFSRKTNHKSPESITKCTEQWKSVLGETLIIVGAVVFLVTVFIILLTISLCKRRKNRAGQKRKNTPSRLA
Method: A plate-based binding assay for the TF-targeting peptides was performed as follows. Peptides were dissolved in water at a concentration of 60 μM and coated onto BD Falcon OptiLux 96-well plates (BD Biosciences, Franklin Lakes, N.J.) by incubating them at 37° C. for 2 hours, then at 4° C. overnight. Next, wells were blocked using Superblock phosphate buffered saline (PBS) blocking buffer (200 μL per well, Thermo Scientific, Waltham, Mass.) for 2 hours at room temperature, then washed two times with water. Rat recombinant TF (Cloud Clone Corp, Houston, Tex.) was added in amounts of 12.5-75.0 ng, dissolved in PBS for a total volume of 50 μL/well and incubated at room temperature for 4 hours. Plates were rinsed with water twice, then blocked with Superblock PBS blocking buffer for 30 minutes at room temperature. Colorimetric immunodetection was then performed by incubating wells with anti-TF antibody (Cat. #: ab104513, rabbit polyclonal, Abcam, Cambridge, Mass.) dissolved in Superblock PBS blocking buffer (1:5000) at 4° C. overnight. Wells were washed in water 4 times, and then incubated with a secondary goat-anti-rabbit antibody (Thermo scientific, Rockford, Ill.) conjugated to horseradish peroxidase and dissolved 1:5000 in Superblock PBS blocking buffer for 2 hours at room temperature. Wells were then rinsed 4 times in water, developed using TMB developing solution (TMB Substrate, Thermo Scientific, Waltham, Mass.) for 15 minutes, then stopped with 0.18 M H2SO4 (Sigma Aldrich, St. Louis, Mo.). Plates were immediately read using an Epoch plate reader (BioTek, Winooski, Vt.) at 450 nm. Wells were coated in triplicate, and the assay was performed three times. Treatment groups were each peptide as stated above. Negative controls were wells coated with blocking buffer rather than peptide, and positive controls were wells coated with rat recombinant TF (Cloud Clone Corp) at 12.5 and 25 ng/well.

Molecule | fluorescence in injured liver (injured liver) | total blood loss (Sprague Dawley rats) | absorbance (binding to recombinant TF) (Rat recombinant TF) | dose response of absorbance with recombinant TF (Rat recombinant TF)
KKAAVV(K)-C12 (KKAAVVK(Dodecyl)-NH2; not fully specified; printed as KKAAVV(K)-C12) [non-specific PA nanofiber] | No fluorescence was observed | 21±2% | – | –
EGRNCETHKDDQL | – | – | 0.19±0.3 | –
RLMTQDCLQQRSK | – | – | 0.29±0.02 | increased absorbance with increasing concentrations of recombinant TF
RTLAFVRFK | – | – | 0.28±0.03 | increased absorbance with increasing concentrations of recombinant TF
A2V2K2—C12 (KKAAVVK) [non-specific peptide, non-specific peptide, consisting of the filler peptide, selected as a non-targeted control] | – | – | 0.2±0.03 | –
recombinant TF: rat recombinant tissue factor (Cloud Clone Corp) coated on wells as positive control (protein) AGTPPGKAFNLTWISTDFKTILEWQPKPTNYTYTVQISDRSRNWKYKCTGTTDTECDLTDEIVKDVNWTYEARVLSVPWRNSTHGKETLFGTHGEEPPFTNARKFLPYRDTKIGQPVIQKYEQGGTKLKVTVKDSFTLVRKNGTFLTLRQVFGNDLGYILTYRKDSSTGRKTNTTHTNEFLIDVEKGVSYCFFAQAVIFSRKTNHKSPESITKCTEQWKSVLGE | – | – | 0.32±0.01 | –
